For the assay, the target named is Bs164 β-mannosidase from Bacteroides salyersiae CL02T12C01 (His6 tag removed) (Bacteroides salyersiae CL02T12C01). Briefly: SEC-MALS; Superdex S200 10/300, 80 mM MES (pH 5.5), 200 mM NaCl, room temperature (20 ± 2 °C), 100 μl injected at 5 mg/ml. On the technique in general: In gel filtration, larger molecules generally elute earlier.

The stoichiometry N is the number of molecules, sites or subunits per partner or assembly. For the substance “Bs164 β-mannosidase from Bacteroides salyersiae CL02T12C01 (His6 tag removed) (enzyme)”, the stoichiometry N was 3.

The record behind these values is publication PMC7105311, “Structure and function of Bs164 β-mannosidase from Bacteroides salyersiae the founding member of glycoside hydrolase family GH164” (The Journal of Biological Chemistry, 2019).
